The results in this text go back to patent US20030236184A1.

Assay [1] deals with type-I GnRH binding site in the pituitary of adult male land-locked P. marinus (P. marinus (sea lamprey)). Nature of the assay: competition with iodinated [DAla6,Pro9Net]-mammalian GnRH tracer, pituitary of adult male P. marinus; Ki from IC50.
The target of assay [2] is type-II GnRH binding site in the pituitary of adult male land-locked P. marinus (P. marinus (sea lamprey)). Described as above.
Assay [3] deals with type-I GnRH binding site in the pituitary of adult male land-locked P. marinus (P. marinus (sea lamprey)). Description: self-displacement of iodinated [DAla6,Pro9Net]-mammalian GnRH tracer, pituitary of adult male P. marinus; Ki from IC50.
The target in assay [4] is type-II GnRH binding site in the pituitary of adult male land-locked P. marinus (P. marinus (sea lamprey)). The assay is described as above.

The term Ki denotes a dissociation constant, usually derived from enzyme kinetics or from competition with a known ligand. Low readings indicate higher affinity, high ones lower affinity. For “[Ac-Delta-3Pro, 4FDPhe^2-D-Trp^3,6]-lGnRH-III (peptide)”, the figures for the Ki in assay [1] and in assay [2] were 7.1 nM and 8940 nM, respectively.

Consider [D-Phe^2, Gly^6]-lGnRH-III (peptide), for which the Ki stood at 0.00383 nM in assay [1] and 655 nM in assay [2].

Take [D-Phe^2, Gly^6]-lGnRH-I (peptide): the inhibitory constant (Ki) in assay [1] was 1.37 nM; in assay [2], 5650 nM.

For the substance “[DAla^6, Pro^9Net]-mammalian GnRH (peptide)”, the Ki in assay [3] amounted to 0.00311 nM; in assay [4], 89 nM.

Take [D-Phe^2,6, Pro^3]-lGnRH-III (peptide): the results for the Ki in assay [1] and in assay [2] were 0.03 nM and 52200 nM, respectively.
